From PMC1447668, “Foxp3 Represses Retroviral Transcription by Targeting Both NF-κB and CREB Pathways” (PLoS Pathogens, 2006)

Biological target: cAMP-responsive element binding protein CREB-1 (UniProt P16220 1-327)
Test: cell-based or functional assay

cAMP-responsive element binding protein CREB-1, sequence (P16220 whole entry): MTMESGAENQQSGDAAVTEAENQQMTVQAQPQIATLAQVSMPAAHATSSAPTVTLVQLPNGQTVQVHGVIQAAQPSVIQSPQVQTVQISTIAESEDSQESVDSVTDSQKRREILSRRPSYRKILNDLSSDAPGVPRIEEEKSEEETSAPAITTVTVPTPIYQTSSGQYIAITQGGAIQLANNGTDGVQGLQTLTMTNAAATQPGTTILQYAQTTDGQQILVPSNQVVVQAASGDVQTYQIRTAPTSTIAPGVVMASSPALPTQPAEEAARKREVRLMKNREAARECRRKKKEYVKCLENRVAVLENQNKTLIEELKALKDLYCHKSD

basal levels of Gal4-BD-CREB-1 activation of a Gal4 luciferase reporter in HEK 293T cells with Foxp3 overexpressed (Figure 7C): > 2 fold
B1: human Foxp3 (natural protein, UniProt Q9BZS1 1-431, looked up)
chain: MPNPRPGKPSAPSLALGPSPGASPSWRAAPKASDLLGARGPGGTFQGRDLRGGAHASSSSLNPMPPSQLQLPTLPLVMVAPSGARLGPLPHLQALLQDRPHFMHQLSTVDAHARTPVLQVHPLESPAMISLTPPTTATGVFSLKARPGLPPGINVASLEWVSREPALLCTFPNPSAPRKDSTLSAVPQSSYPLLANGVCKWPGCEKVFEEPEDFLKHCQADHLLDEKGRAQCLLQREMVQSLEQQLVLEKEKLSAMQAHLAGKMALTKASSVASSDKGSCCIVAAGSQGPVVPAWSGPREAPDSLFAVRRHLWGSHGNSTFPEFLHNMDYFKFHNMRPPFTYATLIRWAILEAPEKQRTLNEIYHWFTRMFAFFRNHPATWKNAIRHNLSLHKCFVRVESEKGAVWTVDELEFRKKRSQRPSRCSNPTPGP
